Each binder was assayed against IM-CA22 (assay: competition ELISA: 0.5 µg/mL peptide added to prevent the binding of AS-SPIK with IM-CA22; inhibition rate from OD value with vs without peptide).
Chain of IM-CA22 (VH, as listed by the source, chain 1 of 2): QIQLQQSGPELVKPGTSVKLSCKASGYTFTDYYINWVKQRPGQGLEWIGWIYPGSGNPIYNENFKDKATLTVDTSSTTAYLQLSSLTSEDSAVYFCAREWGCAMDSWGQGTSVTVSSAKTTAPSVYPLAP
Chain of IM-CA22 (VL, as listed by the source, chain 2 of 2): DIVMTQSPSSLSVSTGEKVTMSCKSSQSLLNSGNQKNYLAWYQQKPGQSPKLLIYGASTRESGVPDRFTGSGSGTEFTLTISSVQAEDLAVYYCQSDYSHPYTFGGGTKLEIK

Binder	Inhibition %
GNTGADSLG [SPIK4]	6%
SGNTGADSL [SPIK5]	5%
LSGNTGADS [SPIK6]	6%
SLSGNTGAD [SPIK7]	6%

From patent publication US20240043512A1
